According to paper PMC6305486:

Tests used:
[1] = molecular target: e5-FtsB_(25–103)/k5-FtsL_(64–121) complex (E. coli) (UniProt P0A6S5); experiment: SEC; analytical gel filtration, Superdex 200 10/300 GL, buffer B (20 mM Tris-HCl pH 8.0, 200 mM NaCl), 0.5 mL/min; low concentrations (6.8–22.2 μM); apparent Stokes radius compared with radii calculated from models
[2] = molecular target: GST-fused e5-FtsB_(25–103)/k5-FtsL_(64–121) complex (WT) (E. coli) (UniProt P0A6S5); experiment: BLI; BLItz; GST-fused FtsB proteins or GST-e5-FtsB/k5-FtsL complexes immobilised on AR2G biosensor by amine coupling; FtsQ_(50–276) (WT or Y248A) in solution, 0.1–80 μM; running buffer 20 mM Tris-HCl pH 8.0, 200 mM NaCl; equilibrium analysis of points at 100 s
[3] = molecular target: GST-fused e5-FtsB_(25–103) E68A/k5-FtsL_(64–121) complex (E. coli) (UniProt P0A6S5); experiment: as above
[4] = molecular target: e5-FtsB_(25–103)/k5-FtsL_(64–121) complex (E. coli) (UniProt P0A6S5); experiment: SEC; analytical gel filtration, Superdex 200 10/300 GL, buffer B (20 mM Tris-HCl pH 8.0, 200 mM NaCl), 0.5 mL/min; high concentrations (101–370 μM); apparent Stokes radius compared with radii calculated from models
[5] = molecular target: FtsQ_(50–276) (UniProt P06136); experiment: BLI; settings: GST-e5-FtsB (mutant) in complex with k5-FtsL immobilized; FtsQ analyte 0-80 µM; parent: 0.24 ± 0.01
FtsQ_(50–276) (UniProt P06136), sequence (P06136 whole entry, looked up, tested part not stated): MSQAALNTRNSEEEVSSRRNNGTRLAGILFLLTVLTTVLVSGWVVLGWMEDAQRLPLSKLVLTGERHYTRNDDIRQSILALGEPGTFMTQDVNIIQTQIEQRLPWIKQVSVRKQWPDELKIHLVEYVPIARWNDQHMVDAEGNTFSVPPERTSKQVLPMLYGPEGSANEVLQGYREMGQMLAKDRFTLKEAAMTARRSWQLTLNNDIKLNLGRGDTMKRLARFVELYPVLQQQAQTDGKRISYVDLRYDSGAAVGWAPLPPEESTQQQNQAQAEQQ

FtsQ_(50–276) (from UniProt P06136 50-276) (domain or fragment), sequence (P06136 50-276): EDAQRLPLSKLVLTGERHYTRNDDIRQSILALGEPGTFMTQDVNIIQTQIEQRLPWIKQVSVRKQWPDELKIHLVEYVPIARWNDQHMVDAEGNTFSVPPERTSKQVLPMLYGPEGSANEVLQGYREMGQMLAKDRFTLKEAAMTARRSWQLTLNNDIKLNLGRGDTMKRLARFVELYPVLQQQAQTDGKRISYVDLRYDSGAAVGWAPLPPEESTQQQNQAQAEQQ

Substance: FtsQ_(50–276) (from UniProt P06136 50-276) (domain or fragment)
- stoichiometry N (FtsQ:FtsB:FtsL ratio (1:1:1)) [1]: 1
- stoichiometry N (FtsQ:FtsB:FtsL ratio (2:2:2)) [1]: 1
- Kd [2]: 0.24 µM
- fold reduction of affinity against WT [3]: 10 fold
- stoichiometry N (FtsQ:FtsB:FtsL ratio (1:1:1)) [4]: 1
- stoichiometry N (FtsQ:FtsB:FtsL ratio (2:2:2)) [4]: 1

Substance: GST-fused e5-FtsB_(25–103)/k5-FtsL_(64–121) complex (WT) (from UniProt P0A6S5;P0AEN4) E69R
- Kd [5]: > 100 µM

Substance: GST-fused e5-FtsB_(25–103)/k5-FtsL_(64–121) complex (WT) (from UniProt P0A6S5;P0AEN4) E82R
- Kd [5]: > 100 µM

Substance: GST-fused e5-FtsB_(25–103)/k5-FtsL_(64–121) complex (WT) (from UniProt P0A6S5;P0AEN4) R72E
- Kd [5]: > 100 µM
